Laboratory results: the Human Domainome abundance scans (Beltran et al. 2025)

B1: Ankyrin repeat and SOCS box protein 14, residues 532 to 572; numbered along this chain, A6NK59 (parent)
chain: RSLKHLCRLKIRKCMGRLHLRCPVFMSFLPLPNRLKAYVLY

Variants of: B1
Experiment: abundance fitness (aPCA) (normalised: wild type 0, dead -1); higher = more abundant; growth selection in yeast, the domain comes from the species named
Conditions: Homo sapiens

Abundance fitness: each site, then its substitutions
P32: L 0.403; Q -0.587; G -0.223; S -0.363; Y 0.221; R -0.452; K -0.179; C 0.239; F 0.465; E -1.07; H -0.47; W 0.552; M 0.212; A 0.08; D -0.998; I -0.013
M26: R -0.047; I -0.038; G 0.072; E 0.194; A -0.08; K -0.026; Q -0.154; W 0.118; C -0.013; P -0.002; L 0.078; Y -0.207; S 0.018; T -0.002; D -0.004; H 0.113
A37: H -0.118; R -0.002; M -0.207; L -0.404; Q 0.083; S -0.143; P -0.995; W -0.502; G -0.291; E 0.021; C -0.091; V -0.482
K36: S -0.662; W -0.062; E -0.732; G -0.599; C -0.398; P -0.725; N -0.932; I -0.274; M -0.398; A -0.382; V -0.051; L -0.242; R -0.294; F -0.022; Q -0.374; T -0.423; Y -0.335
L29: G -0.349; T -0.455; V -0.353; F -0.473; D -0.435; Y -0.53; A -0.356; I -0.037; P -0.342; S -0.258; E -0.672; K -0.299; M -0.618
L35: D -1.24; T -0.966; K -1.29; N -0.729; P -0.913; A -0.466; R -1.28; I -0.18; E -1.12; G -1.13; W 0.044; H -0.955; S -0.66; C -0.135; V -0.103
L18: S -0.735; T -0.571; Q -0.732; V -0.392; R -0.894
L40: A -0.075; D -0.113
Y38: E -0.599; R -0.446; H -0.535; A -0.343; W 0.295; L -0.346; T -0.478; S -0.436; I -0.293; D -0.681; P -0.731; M -0.454; V -0.558; K -0.485; C -0.622; G -0.59; Q -0.45
R34: C -0.204; S -0.218; Y -0.155; V -0.447; P -0.582; L -0.709; H -0.455; W 0.022; G -0.29; T -0.203; K -0.166; A -0.255; E -0.054; Q -0.44; M -0.714; F -0.168
V24: K 0.449; T 0.176; R 0.352; G 0.319; E 0.347; W 0.233; Q 0.242; S 0.308; L -0.081; F 0.469; C 0.251; D 0.472; P 0.137; N 0.316; Y -0.166; M -0.217
N33: I -0.452; C -0.151; L -0.432; K -0.222; Y -0.586; Q 0.111; M -0.629; D 0.057; W -0.528; H 0.129; R 0.044; G 0.216; E 0.173; P -0.004; A 0.234; S 0.105
H19: E -0.24; P -0.326; T -0.22; Q -0.004; R 0.018; C -0.236; K 0.141; W -0.053; D -0.272; F -0.097; L 0.069; V -0.111; A 0.171; M -0.183; Y -0.336; G 0.024
P30: F -0.182; S 0.424; G 0.337; L 0.151; I -0.217; E 0.4; R 0.485; D 0.325; Y -0.067; C 0.197; M 0.26; V -0.009; A 0.417; T 0.313
L31: M -0.301; I -0.006; Q -0.656; K -0.529; E -0.846; H -0.434; D -0.256; P -0.476; R -0.338; W -0.187; Y -0.795; V -0.086; A -0.272; S -0.113; G -0.28; T -0.439
F28: P -0.322; T -0.237; N 0.005; M -0.127; K 0.221; V -0.156; D -0.056; Y -0.01; R 0.104; S -0.05; I 0.001; E 0.27; Q 0.066; W 0.177; A -0.228; L 0.128; H 0.199; C -0.198
S27: N 0.019; Q -0.085; G -0.075; W -0.156; E -0.006; A -0.059; Y -1.05; V -0.709; R 0.042; M -0.892; C -0.536; P -0.386; D -0.054; K 0.078; L -1.09; T -0.247
R21: G -0.061; N 0.096; P -0.322; I 0.207; V 0.009; D -0.143; E -0.508; C -0.253; F -0.102; Q -0.623; S -0.147; K -0.029; A -0.076; L 0.196; T -0.178; W 0.275; H -0.295; M 0.129
P23: H -0.306; S 0.273; Q 0.407; V 0.384; L 0.494; C 0.28; W 0.321; G 0.198; Y 0.283; F 0.078; D 0.315; T 0.336; E 0.36; K 0.524; R 0.357; A 0.321; M 0.334; N -0.049
F25: P 0.074; Q -0.123; V 0.033; L 0.19; R -0.116; M -0.042; S -0.095; I 0.316; H -0.447; K 0.089; D 0.197; G -0.048; C -0.449; T -0.243; A -0.178
V39: L -0.098; D -0.95; Q -1.3; G -0.743; S -0.779; I -0.022; W -0.43; T -0.186; A -0.361
L20: R -0.348; D 0.3; E 0.249; A 0.083; M -0.098; K 0.101; Y -0.655; S -0.093; V -0.233; T 0.069; I -0.308; G -0.089; Q -0.087; F -0.026; W -0.285; C -0.296
C22: L 0.243; I 0.178; M 0.162; R -0.282; W 0.218; D -1.02; F 0.057; Y -0.139; G -0.339; S -0.247; E -0.455; H -0.052; K -0.519; P -0.086; V 0.064; Q -0.521; N -0.719
